Source: the supplement of paper PMC10567573

B1: DVL3 (parent)
chain: FCADNPSELPPPMERTGGIGDSRP
B2: KIAA1161 (parent)
chain: FMPAMQFSIPPWRYDAEVVAIAQK

Variants of: B1
Experiment: protein stability index of a GFP-peptide fusion (GPS, HEK-293T) (PSI 1-6); higher = more stable
Settings: c terminus: a fixed tail appended
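Note: lentivirally expressed fusions sorted by FACS into six bins by GFP to DsRed ratio, PSI derived from sequencing read proportions per bin multiplied by bin number.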

Protein stability index, by site and new letter:
P6: D 4.03, G 3.85, Y 4.27, L 3.88, F 4.38, N 4.61, V 4.27, W 2.33, H 4.08, T 3.99, M 3.8, A 4.71, Q 4.95, R 4.19, K 4.33, S 3.95, E 4.64, I 3.73
E14: I 3.98, A 4.24, G 3.84, D 4.55, C 3.68, F 3.45, H 4.08
F1: I 5.05, M 3.45, S 4.94, G 5.33, H 5.25, C 3.99, V 5.18, T 4.99, Y 4.89, R 4.68, P 5.44, D 5.43, K 4.86, A 5.49, E 5.12, W 4.26, L 4.63, Q 4.83, N 5.58
L9: M 4.34, R 4.32, H 4.66, N 5.1, V 4.82, E 5.34, I 4.53, K 4.66, F 4.44, Y 4.11, C 4.79, S 4.99, Q 4.16
P10: V 4.49, E 2.94, Q 4.27, G 4.13, D 4.81, M 4.54, W 3.13, R 4.08, S 4.38, N 4.54, A 4.29, K 4.37, I 3.81, L 4.32, Y 3.74, F 3.41, T 4.61, H 4.3, C 3.81
E8: R 3.05, S 4.63, N 4.26, L 3.67, D 4.39, M 3.49, K 3.47, T 4.02, H 3.95, Y 3.25, A 4.36, I 3.88, C 4.06, Q 2.77, W 2.03, G 4.37, F 2.6, P 4.14
P11: E 4.05, V 3.94, H 4.43, M 4.45, N 4.26, Y 4.23, W 3.64, C 4.33, Q 4.54, G 4.16, S 4.58, T 5.12, D 4.74, L 4.64, A 5.1, R 3.91, F 3.83, I 4.54
S7: V 4.14, C 3.85, M 4.3, I 4.19, G 4.01, T 4.22, E 5.11, L 4.57, Y 3.81, F 4.24, D 5.04, N 4.45, A 4.57, K 4.98, R 3.58
C2: K 4.68, L 5, I 4.71, F 4.31, V 3.27, M 4.71, G 4.83, H 4.36, T 5.06, Y 4.75, S 5, A 4.77, P 4.73, R 4.58, D 5.46, N 4.43, W 3.44
A3: D 5.11, T 4.29, E 5.23, S 4.81, F 3.56, Y 4.49, N 4.79, W 3.64, K 4.34, V 4.78, M 4.48, P 4.17, H 4.37, I 4.25, C 4.13, Q 3.45
N5: A 4.31, T 4.42, Y 3.62, F 2.65, M 4.57, Q 4.45, K 4.29, W 3.23, E 4.8, D 4.92, H 3.81, V 4.58, I 4.21, S 4.78, G 4.46, L 3.32
P12: Y 3.63, G 4.39, T 3.99, E 4.89, I 3.76, W 1.75, N 4.69, F 3.41, V 4.62, L 4.63, A 5.55, D 5.2, K 4.69, C 4.07, M 4.19, H 4.61, R 3.93, S 4.07, Q 4.75
D4: G 4.37, Q 3.36, M 3.26, A 4.19, T 4.29, Y 3.98, E 5, S 4.25, N 3.96, F 3.08, K 2.85, W 2.06, L 3.83, R 4.36, H 4.27, V 3.79, I 3.71
M13: T 4.57, R 4.2, F 4.6, I 4.27, N 4.77, S 4.25, W 2.97, H 4.77, D 4.98, V 4.89, Q 5, E 5.18, A 5.31, C 4.22, Y 4.07, K 5.04, L 4.98, G 4.67

Variants of: B2
Experiment: as above
Settings: c terminus: a fixed tail appended

Protein stability index, by site and new letter:
P3: A 2.35
Y14: H 2.52, K 2.08, N 2.37, M 2.25, S 2.13, F 1.63, Q 2.57
A20: D 3.07, G 1.98
M2: R 2.45, S 1.46, E 2.83, H 1.74
S8: C 1.07, V 2, P 2.1, F 2.68, N 2.7
I9: P 1.93, Q 1.67, D 2.57, F 2.48, H 2.35, K 1.84
E17: R 1.38, W 3.06, S 1.62, H 1.92, G 1.72
A16: T 3.04, S 1.72, H 1.63, G 1.2, E 1.97, Y 2.19
R13: T 2.02, I 1.81, D 2.67, E 2.48, P 2.17, N 2.51
D15: T 2.69, R 1.95, P 1.17, W 1.19, E 2.5
F1: E 2.81, K 2.55, Y 1.82
V19: E 2.42, N 3.31, T 2.21
V18: N 2.23, I 2.06, Q 2.81, F 1.62, K 2.33, L 2.23, W 3.22
A22: L 2.45, F 2.18, S 1.94, Q 2.56
I21: G 2.66, H 2.32, D 2.59, V 1.68, Q 2.81
P11: K 1.65, L 2.24, E 1.64, C 1.79, G 1.48
P10: W 3.74, A 1.33, E 2.5, R 1.28, D 1.27
M5: F 2.25, H 2.71, A 2.15, L 2.25
F7: H 2.01, I 2.9, P 2.08
Q6: I 1.34, T 1.55
A4: L 2.09, G 2.34
K24: Q 1.86, F 2
W12: H 2.53, F 2.26, Y 1.99, D 2.55
Q23: M 3.29, F 1.35, G 1.78, P 1.99, S 1.52, W 2.74, H 1.66, Y 1.3
